Experimental findings from paper PMC7610862 (Nature microbiology, 2021) are described below.

For orientation: stoichiometry N means the number of molecules, sites or subunits per partner or assembly.

The labels stand for the following.
T1: FliP (Salmonella enterica serovar Typhimurium, UniProt P54700 22-245)
T1 sequence (looked up): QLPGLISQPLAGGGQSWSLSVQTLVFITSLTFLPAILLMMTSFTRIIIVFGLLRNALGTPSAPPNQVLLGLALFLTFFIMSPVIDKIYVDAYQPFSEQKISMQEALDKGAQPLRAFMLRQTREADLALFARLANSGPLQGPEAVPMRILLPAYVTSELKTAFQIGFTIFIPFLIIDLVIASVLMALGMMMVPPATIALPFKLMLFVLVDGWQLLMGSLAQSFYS

B1: FlgD (natural protein, Salmonella enterica serovar Typhimurium, UniProt P0A1I9 1-232, looked up)
chain: MSIAVNMNDPTNTGVKTTTGSGSMTGSNAADLQSSFLTLLVAQLKNQDPTNPLQNNELTTQLAQISTVSGIEKLNTTLGAISGQIDNSQSLQATTLIGHGVMVPGTTILAGKGAEEGAVTSTTPFGVELQQPADKVTATITDKDGRVVRTLEIGELRAGVHTFTWDGKQTDGTTVPNGSYNIAITASNGGTQLVAQPLQFALVQGVTKGSNGNLLDLGTYGTTTLDEVRQII
B2: FlgF (natural protein, Salmonella enterica serovar Typhimurium, UniProt P16323 1-251, looked up)
chain: MDHAIYTAMGAASQTLNQQAVTASNLANASTPGFRAQLNALRAVPVDGLSLATRTLVTASTPGADMTPGQLDYTSRPLDVALQQDGWLVVQAADGAEGYTRNGNIQVGPTGQLTIQGHPVIGEGGPITVPEGSEITIAADGTISALNPGDPPNTVAPVGRLKLVKAEGNEVQRSDDGLFRLTAEAQAERGAVLAADPSIRIMSGVLEGSNVKPVEAMTDMIANARRFEMQMKVITSVDENEGRANQLLSMS
B3: FlgG (natural protein, Salmonella enterica serovar Typhimurium, UniProt P0A1J3 1-260, looked up)
chain: MISSLWIAKTGLDAQQTNMDVIANNLANVSTNGFKRQRAVFEDLLYQTIRQPGAQSSEQTTLPSGLQIGTGVRPVATERLHSQGNLSQTNNSKDVAIKGQGFFQVMLPDGTSAYTRDGSFQVDQNGQLVTAGGFQVQPAITIPANALSITIGRDGVVSVTQQGQAAPVQVGQLNLTTFMNDTGLESIGENLYIETQSSGAPNESTPGLNGAGLLYQGYVETSNVNVAEELVNMIQVQRAYEINSKAVSTTDQMLQKLTQL
B4: FlgH (natural protein, Salmonella enterica serovar Typhimurium, UniProt P0A1N8 22-232, looked up)
chain: CAWIPAKPLVQGATTAQPIPGPVPVANGSIFQSAQPINYGYQPLFEDRRPRNIGDTLTIVLQENVSASKSSSANASRDGKTSFGFDTVPRYLQGLFGNSRADMEASGGNSFNGKGGANASNTFSGTLTVTVDQVLANGNLHVVGEKQIAINQGTEFIRFSGVVNPRTISGSNSVPSTQVADARIEYVGNGYINEAQNMGWLQRFFLNLSPM
modifications: lipidated N-terminal Cys (3 lipid moieties; diacylglycerol attached to the sidechain)
B5: FlgC (natural protein, Salmonella enterica serovar Typhimurium, UniProt P0A1I7 1-134, looked up)
chain: MALLNIFDIAGSALAAQSKRLNVAASNLANADSVTGPDGQPYRAKQVVFQVDAAPGQATGGVKVASVIESQAPEKLVYEPGNPLADANGYVKMPNVDVVGEMVNTMSASRSYQANIEVLNTVKSMMLKTLTLGQ
B6: FlgI (natural protein, Salmonella enterica serovar Typhimurium, UniProt P15930 20-365, looked up)
chain: ERIRDLTSVQGVRENSLIGYGLVVGLDGTGDQTTQTPFTTQTLNNMLSQLGITVPTGTNMQLKNVAAVMVTASYPPFARQGQTIDVVVSSMGNAKSLRGGTLLMTPLKGVDSQVYALAQGNILVGGAGASAGGSSVQVNQLNGGRITNGAIIERELPTQFGAGNTINLQLNDEDFTMAQQITDAINRARGYGSATALDARTVQVRVPSGNSSQVRFLADIQNMEVNVTPQDAKVVINSRTGSVVMNREVTLDSCAVAQGNLSVTVNRQLNVNQPNTPFGGGQTVVTPQTQIDLRQSGGSLQSVRSSANLNSVVRALNALGATPMDLMSILQSMQSAGCLRAKLEII
B7: FliF (natural protein, Salmonella enterica serovar Typhimurium, UniProt P15928 1-560, looked up)
chain: MSATASTATQPKPLEWLNRLRANPRIPLIVAGSAAVAIVVAMVLWAKTPDYRTLFSNLSDQDGGAIVAQLTQMNIPYRFANGSGAIEVPADKVHELRLRLAQQGLPKGGAVGFELLDQEKFGISQFSEQVNYQRALEGELARTIETLGPVKSARVHLAMPKPSLFVREQKSPSASVTVTLEPGRALDEGQISAVVHLVSSAVAGLPPGNVTLVDQSGHLLTQSNTSGRDLNDAQLKFANDVESRIQRRIEAILSPIVGNGNVHAQVTAQLDFANKEQTEEHYSPNGDASKATLRSRQLNISEQVGAGYPGGVPGALSNQPAPPNEAPIATPPTNQQNAQNTPQTSTSTNSNSAGPRSTQRNETSNYEVDRTIRHTKMNVGDIERLSVAVVVNYKTLADGKPLPLTADQMKQIEDLTREAMGFSDKRGDTLNVVNSPFSAVDNTGGELPFWQQQSFIDQLLAAGRWLLVLVVAWILWRKAVRPQLTRRVEEAKAAQEQAQVRQETEEAVEVRLSKDEQLQQRRANQRLGAEVMSQRIREMSDNDPRVVALVIRQWMSNDHE
B8: FliE (natural protein, Salmonella enterica serovar Typhimurium, UniProt P26462 1-104, looked up)
chain: MAAIQGIEGVISQLQATAMAARGQDTHSQSTVSFAGQLHAALDRISDRQAAARVQAEKFTLGEPGIALNDVMADMQKASVSMQMGIQVRNKLVAAYQEVMSMQV
B9: FlgB (natural protein, Salmonella enterica serovar Typhimurium, UniProt P16437 1-138, looked up)
chain: MLDRLDAALRFQQEALNLRAQRQEILAANIANADTPGYQARDIDFASELKKVMVRGREETGGVALTLTSSHHIPAQAVSSPAVDLLYRVPDQPSLDGNTVDMDRERTQFADNSLKYQMGLTVLGSQLKGMMNVLQGGN

What all share (assay): cryo-EM structure
The target of the series “FlgG” is B3.
The series “cryo-EM structure” deals with the molecule itself.
The series “FliF” concerns the target B7.
The target in the series “FlgI” is B6.
The target in the series “FlgF” is B2.
The target of the series “FlgB” is B9.
The next series deals with T1, FliP.

With B1, in the series with FlgG, the binding result is “binds”. The “stoichiometry N” value in the series “cryo-EM structure” turned out to be 5.
Take B2: the binding result with FliF and with FlgG was “binds” throughout. The “stoichiometry N” value in “cryo-EM structure” came out at 5 copies.
Take B3: the “stoichiometry N” value in the series “cryo-EM structure” was 24 copies. Also, the binding result in the series with FlgI was “binds”.
With B4, the “stoichiometry N” value in the series “cryo-EM structure” was found to be 26 copies. In the series with FlgI, the binding result is listed as “binds”.
As for B5, the binding result in the series with FlgF, with FliF and in the series with FlgB was “binds” each time. The “stoichiometry N” value in the series “cryo-EM structure” amounted to 6 copies.
For the molecule B6, the “stoichiometry N” value in the series “cryo-EM structure” was determined as 26 copies.
B7: in “cryo-EM structure”, the “stoichiometry N” value was 34.
In the case of B8, the binding result with FliP and in the series with FlgB was “binds” throughout.
Take B9: the binding result with FliF is on record as “binds”. Moreover, the “stoichiometry N” value in “cryo-EM structure” worked out at 5 copies.
